These substances were tested against VBC ternary complex (pVHL, Elongin B, Elongin C) (UniProt P40337) (assay: BLI; biotinylated VBC (25 ug/mL) immobilised on Super Streptavidin biosensors, peptides titrated; Octet RED384; 25 °C; 20 mM HEPES pH 7.6, 100 mM NaCl, 1 mM DTT, 0.02 % Tween-20; reference tips subtracted; 1:1 model).

peptide C (8-mer Cul2 peptide, Leu3 replaced by phenylalanine), sequence (Q13617 whole entry, looked up, tested part not stated): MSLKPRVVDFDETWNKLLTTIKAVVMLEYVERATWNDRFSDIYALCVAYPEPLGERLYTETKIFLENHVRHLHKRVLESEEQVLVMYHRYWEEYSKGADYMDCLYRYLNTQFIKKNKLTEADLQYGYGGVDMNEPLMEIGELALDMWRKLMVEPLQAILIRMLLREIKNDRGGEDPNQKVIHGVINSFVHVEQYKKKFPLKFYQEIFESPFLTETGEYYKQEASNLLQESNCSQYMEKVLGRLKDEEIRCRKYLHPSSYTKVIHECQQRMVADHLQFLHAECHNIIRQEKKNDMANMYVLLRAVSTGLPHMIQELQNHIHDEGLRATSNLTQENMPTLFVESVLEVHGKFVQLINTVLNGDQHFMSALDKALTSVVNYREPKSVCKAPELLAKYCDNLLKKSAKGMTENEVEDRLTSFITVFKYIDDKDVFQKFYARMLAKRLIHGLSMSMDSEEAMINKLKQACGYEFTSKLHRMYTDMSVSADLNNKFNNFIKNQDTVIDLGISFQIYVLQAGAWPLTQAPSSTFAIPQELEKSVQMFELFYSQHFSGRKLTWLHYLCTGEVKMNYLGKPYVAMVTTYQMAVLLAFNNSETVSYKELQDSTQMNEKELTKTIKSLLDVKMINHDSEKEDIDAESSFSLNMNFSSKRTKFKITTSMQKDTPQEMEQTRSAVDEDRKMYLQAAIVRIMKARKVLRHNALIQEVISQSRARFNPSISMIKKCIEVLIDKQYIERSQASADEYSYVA
peptide D (8-mer Cul2 peptide, Leu3 replaced by tyrosine), sequence (Q13617 whole entry, looked up, tested part not stated): as above

| Substance | Kd [mM] |
| --- | --- |
| peptide G (8-mer Cul2 peptide, Leu3 replaced by tert-butylglycine) (from UniProt Q13617 1-8) | 0.9 |
| peptide F (8-mer Cul2 peptide, Leu3 replaced by norvaline) (from UniProt Q13617 1-8) | 1.9 |
| peptide C (8-mer Cul2 peptide, Leu3 replaced by phenylalanine) (from UniProt Q13617 1-8) | 3.1 |
| peptide K (8-mer Cul2 peptide, Leu3 replaced by thioproline) (from UniProt Q13617 1-8) | 2.2 |

Further substances by falling Kd, results first:

| Kd [mM] | Substance |
| --- | --- |
| 8.9 | peptide I (8-mer Cul2 peptide, Leu3 replaced by cyclohexhylglycine) (from UniProt Q13617 1-8) |
| 7.4 | peptide D (8-mer Cul2 peptide, Leu3 replaced by tyrosine) (from UniProt Q13617 1-8) |
| 2.1 | peptide H (8-mer Cul2 peptide, Leu3 replaced by phenylglycine) (from UniProt Q13617 1-8) |

From publication PMC5639367, “Structure‐Guided Design of Peptides as Tools to Probe the Protein–Protein Interaction between Cullin‐2 and Elongin BC Substrate Adaptor in Cullin RING E3 Ubiquitin Ligases” (Chemmedchem, 2017)
